Results on three molecules are retold here after US20250313637A1 (DREN BIO MANAGEMENT, published 2025).

Assay [1] has as its target T1, human Dectin-1 expressed by HEK-Blue hDectin-1-a cells (human, UniProt Q9BXN2 1-247).
T1 sequence: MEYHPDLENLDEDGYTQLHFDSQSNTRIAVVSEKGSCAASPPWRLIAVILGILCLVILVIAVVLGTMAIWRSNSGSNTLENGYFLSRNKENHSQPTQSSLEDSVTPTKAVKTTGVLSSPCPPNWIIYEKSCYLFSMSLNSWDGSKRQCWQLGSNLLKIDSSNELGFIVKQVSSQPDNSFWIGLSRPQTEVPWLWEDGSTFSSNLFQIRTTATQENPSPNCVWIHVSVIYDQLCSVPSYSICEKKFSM
As to the kind of experiment: cell-based or functional assay.

The target of assay [2] is T2, CD20 expressed on Raji cells (UniProt P11836 1-297, limits assumed).
T2 construct: whole, on cells; also called CD20-expressing Raji cells; CD20-expressing B cell lymphoma Raji cell line
T2 sequence (looked up): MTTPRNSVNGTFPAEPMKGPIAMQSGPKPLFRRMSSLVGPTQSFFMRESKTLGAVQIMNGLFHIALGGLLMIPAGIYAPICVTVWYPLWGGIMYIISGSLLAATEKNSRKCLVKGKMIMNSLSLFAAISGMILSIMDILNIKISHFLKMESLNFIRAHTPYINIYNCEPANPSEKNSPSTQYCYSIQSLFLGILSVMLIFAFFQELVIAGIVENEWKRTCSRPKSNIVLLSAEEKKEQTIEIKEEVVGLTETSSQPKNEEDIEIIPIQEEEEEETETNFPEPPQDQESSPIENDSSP
As to the kind of experiment: flow cytometry on CD20-expressing Raji cells. On the procedure: To evaluate the effect of the 2M24xCD20 bispecific antibody on cells, its binding affinity for cells expressing Dectin-1 or CD20 was measured. Two different formats were used to drive heavy:light chain pairing and bispecific antibody assembly: the DuetMab format with engineered disulfide bonds (see Mazor, Y. et al. (2015) MAbs 7:377-389) (“2M24xCD20 hG1 Duet”) and the M-Fab format described herein (see, e.g., FIG. 3) (“2M24xCD20 hG1M”), as compared to monospecific anti-CD20 with hG1 Fc. Binding of the bispecific 2M24xCD20 antibodies to Dectin-1-expressing HEK293 cells was assessed by flow cytometry (FIG. 7A). Both M-Fab and DuetMab formats were able to bind cells expressing Dectin-1 with similar affinities. Binding of the bispecific 2M24xCD20 antibodies to cells expressing CD20 was also assessed by flow cytometry, using the CD20-expressing B cell lymphoma Raji cell line (FIG. 7B). Both M-Fab and DuetMab were able to bind cells expressing CD20 with similar affinities, but with reduced affinity compared to the parental monospecific anti-CD20 antibody.
A general note: A flow cytometer gives signals particle by particle.

B1: M-Fab 2M24xCD20 bispecific antibody (2M24xCD20 hG1M) (bispecific antibody, human IgG1, kappa)
heavy 1: not shown
light 1: DIQMTQSPSSVSASVGDRVTITCRASQGISSWLAWYQQKPGKAPKLLIFGASSLQSGVPSRFSGSGSGTDFTLTVSSLQPEDFATYYCQQAYSFPFTFGPGTKVDIERTVALHRPDVYLLPPAREQLNLRESATIWCLVTGFSPADVFVQWMQRGQPLSPEKYVTSAPMPEPQAPGRYFAHSILTVSEEEWNTGETYTCVVAHEALPNRVTERTVDKSTGEC
heavy 2: QVQLQQPGAELVKPGASVKMSCKASGYTFTSYNMHWVKQTPGRGLEWIGAIYPGNGDTSYNQKFKGKATLTADKSSSTAYMQLSSLTSEDSAVYYCARSTYYGGDWYFNVWGAGTTVTVSAASTKGPSVFPLAPSSKSTSGGTAALGCLVKDYFPEPVTVSWNSGALTSGVHTFPAVLQSSGLYSLSSVVTVPSSSLGTQTYICNVNHKPSNTKVDKKVEPKSCDKTHTCPPCPAPELLGGPSVFLFPPKPKDTLMISRTPEVTCVVVDVSHEDPEVKFNWYVDGVEVHNAKTKPREEQYNSTYRVVSVLTVLHQDWLNGKEYKCKVSNKALPAPIEKTISKAKGQPREPQVYTLPPSREEMTKNQVSLSCAVKGFYPSDIAVEWESNGQPENNYKTTPPVLDSDGSFFLVSKLTVDKSRWQQGNVFSCSVMHEALHNRFTQKSLSLSPG
light 2: QIVLSQSPAILSASPGEKVTMTCRASSSVSYIHWFQQKPGSSPKPWIYATSNLASGVPVRFSGSGSGTSYSLTISRVEAEDAATYYCQQWTSNPPTFGGGTKLEIKRTVAAPSVFIFPPSDEQLKSGTASVVCLLNNFYPREAKVQWKVDNALQSGNSQESVTEQDSKDSTYSLSSTLTLSKADYEKHKVYACEVTHQGLSSPVTKSFNRGEC
With B1, in assay [1], the “SEAP reporter assay EC50 (OD630), HEK-Blue hDectin-1-a cells co-cultured with CD20-expressing Raji cells, Exp. 1” value came out at 3.65 nM and the “SEAP reporter assay EC50 (OD630), HEK-Blue hDectin-1-a cells co-cultured with CD20-expressing Raji cells, Exp. 2” value is 3.53 nM.

B2: DuetMab 2M24xCD20 bispecific antibody (2M24xCD20 hG1 Duet) (bispecific antibody, V domains shown)
VH 1: QVQLVQSGAEVKKPGASVKVSCKSSGYTFTDYYIHWVRQAPGQGLEWMGWINPNSGDTNYAQKFQGRITMTRDTSISTAYLELSRLRSDDTAVFYCARNSGSYSFGYWGQGTLVTVSS
VL 1: DIQMTQSPSSVSASVGDRVTITCRASQGISSWLAWYQQKPGKAPKLLIFGASSLQSGVPSRFSGSGSGTDFTLTVSSLQPEDFATYYCQQAYSFPFTFGPGTKVDIE
VH 2: QVQLQQPGAELVKPGASVKMSCKASGYTFTSYNMHWVKQTPGRGLEWIGAIYPGNGDTSYNQKFKGKATLTADKSSSTAYMQLSSLTSEDSAVYYCARSTYYGGDWYFNVWGAGTTVTVSA
VL 2: QIVLSQSPAILSASPGEKVTMTCRASSSVSYIHWFQQKPGSSPKPWIYATSNLASGVPVRFSGSGSGTSYSLTISRVEAEDAATYYCQQWTSNPPTFGGGTKLEIK
notes: Human IgG1 in the DuetMab format with engineered disulfide bonds (Mazor 2015)
As for B2, in assay [2], the binding result is “binds”. In addition, in assay [1], the “SEAP reporter assay EC50 (OD630), HEK-Blue hDectin-1-a cells co-cultured with CD20-expressing Raji cells, Exp. 1” value was determined as 2.63 nM and the “SEAP reporter assay EC50 (OD630), HEK-Blue hDectin-1-a cells co-cultured with CD20-expressing Raji cells, Exp. 2” value amounted to 3.19 nM.

B3: 2+1 M-Fab (2M24xTrop2 hIgG1) bispecific antibody (bispecific antibody)
heavy 1: not shown
light 1: not shown
heavy 2: not shown
light 2: DIVLTQSPGTLSLSPGERATLSCRASQSVSSSYLAWYQQKPGQAPRLLISGASSRATGIPDRFSGSGSGTDFTLTISRLEPEDFAVYYCQQYGSSHRTFGQGTKVEIKRTVALHRPDVYLLPPAREQLNLRESATIWCLVTGFSPADVFVQWMQRGQPLSPEKYVTSAPMPEPQAPGRYFAHSILTVSEEEWNTGETYTCVVAHEALPNRVTERTVDKSTGES
For the molecule B3, in assay [1], the “SEAP reporter assay EC50, in presence of CHO cells (~2 million copies/cell)” value stood at 0.13 nM; the “SEAP reporter assay EC50, in presence of H2170 cells expressing Trop2 (~136,000 copies/cell)” value worked out at 0.17 nM; the “SEAP reporter assay EC50, in presence of HeLa cells expressing Trop2 (~25,500 copies/cell)” value was 0.37 nM; the “SEAP reporter assay, fold shift in EC50 against traditional bispecific, CHO cells” value came to 9.8 fold. For the same molecule, in assay [1], the “SEAP reporter assay, fold shift in EC50 against traditional bispecific, H2170 cells” value turned out to be 47.6 fold and the “SEAP reporter assay, fold shift in EC50 against traditional bispecific, HeLa cells” value is 4.7 fold.
